{"source": "patent US12410262B2", "about": "“Peptide conjugates of cytotoxins as therapeutics” (Cybrexa 2, Inc., priority 2019, dated 2025)", "key": {"HCT116 xenografts": {"tested_on": "HCT116 xenografts", "assay": "Tumor and bone marrow pharmacokinetics in a mouse model", "type": "in vivo, athymic nude Foxn^nu mice", "conditions": "mouse bearing HCT116 xenograft, single IP dose 10 mg/kg", "method": "Six-week-old female athymic nude Foxn^nu mice were obtained from Taconic Labs (Cat #NCRNU-F) and were housed 5 per cage on Alpha-Dri bedding in a disposable caging system (Innovive). Human HCT116 cancer cells derived from colorectal carcinoma were diluted 1:1 in Phenol Red-free Matrigel and subcutaneously implanted into the left flank of each mouse at a density of 2.5×10^6 cells in 100 μL. When xenografts reached a minimal volume of 300 mm^3, mice were administered a single intraperitoneal injection of 10 mg/kg Compound 11 prepared in a vehicle of 5% mannitol in citrate. Tumor and bone marrow samples were collected from fed, anesthetized mice at 1, 2, 4, 8, 16, 24, 32 and 48 hours after compound administration. Total peptide concentrations in tumor and bone marrow were determined via ELISA.\n96-well plates were coated with 100 μL/well of 0.1 μM BSA-labelled peptide prepared in 0.2 M Carbonate-Bicarbonate Buffer, pH 9.4 and incubated overnight at 4° C. Plates were washed 4× with an ELISA wash buffer (PBS+0.05% Tween 20), incubated for 2 hours at room temperature with Blocking Buffer (PBS+5% dry milk+0.05% Tween 20) (300 μL/well) and washed again 4× with ELISA wash buffer. […] Luminescence was read from the plate on a BioTek Cytation 5 plate reader."}, "[1]": {"assay": "Bone marrow toxicity study in a mouse model", "type": "in vivo, athymic nude Foxn^nu mice", "conditions": "2.6 and 5.2 μmoles/kg (10, 20 mg/kg) IP once daily for 4 days", "method": "Six-week-old female athymic nude Foxn^nu mice were obtained from Taconic Labs (Cat #NCRNU-F) and were housed 5 per cage on Alpha-Dri bedding in a disposable caging system (Innovive). Human HCT116 cancer cells derived from colorectal carcinoma were diluted 1:1 in Phenol Red-free Matrigel and subcutaneously implanted into the left flank of each mouse at a density of 2.5×10^6 cells in 100 μL. When xenografts reached a minimal volume of 200 mm^3, mice were administered intraperitoneal doses of vehicle or 2.6 or 5.2 μmoles/kg of either unconjugated exatecan (equivalent to 1.15 or 2.3 mg/kg exatecan, respectively) or Compound 11 (equivalent to 10 or 20 mg/kg Compound 11, respectively). Compounds were administered once daily for 4 days.\nTumor bearing mice were euthanized by cervical dislocation 6 hours after the last dose. Femurs were removed, and bone marrow was extruded into 50 mL conical tubes by flushing the bones with a 23-gauge needle fitted on a 5 cc syringe containing PBS+2% fetal bovine serum. Bone marrow was homogenized by gentle pipetting and filtered through 100 μm nylon mesh filters and cells were pelleted by centrifugation at 1200 rpm for 5 minutes at 4° C. Red blood cells were lysed with 3 mL of lysis buffer for 2 minutes at room temperature. […] Cell pellets were suspended in 5 mL of PBS and cell count was assessed by trypan blue exclusion. […]"}}, "data": [{"smiles": "CC[C@@]1(O)C(=O)OCc2c1cc1n(c2=O)Cc2c-1nc1cc(F)c(C)c3c1c2[C@@H](NC(=O)O[C@H]1CCCC[C@@H]1SSC[C@H](NC(=O)[C@H](Cc1c[nH]c2ccccc12)NC(=O)[C@H](CC(C)C)NC(=O)[C@H](CC(C)C)NC(=O)[C@H](CC(=O)O)NC(=O)[C@H](CC(C)C)NC(=O)[C@H](CC(C)C)NC(=O)[C@H](CC(C)C)NC(=O)[C@@H](NC(=O)[C@H](CC(=O)O)NC(=O)[C@@H](NC(=O)[C@@H]1CCCN1C(=O)[C@H](Cc1ccccc1)NC(=O)[C@H](CC(C)C)NC(=O)[C@H](CC(C)C)NC(=O)[C@H](CC(=O)O)NC(=O)[C@H](CC(C)C)NC(=O)[C@H](Cc1ccc(O)cc1)NC(=O)[C@H](C)NC(=O)[C@H](CCCNC(=N)N)NC(=O)[C@H](Cc1c[nH]c2ccccc12)NC(=O)[C@@H]1CCCN1C(=O)[C@H](CC(N)=O)NC(=O)[C@H](CCC(N)=O)NC(=O)[C@H](CC(=O)O)NC(=O)[C@H](CC(=O)O)NC(=O)[C@H](C)N)[C@@H](C)O)[C@@H](C)O)C(=O)NCC(=O)O)CC3", "note": "[Compound 11]", "values": [{"measurement": "peptide concentration in tumor and bone marrow (tumor targeting)", "setting": "HCT116 xenografts", "result": "effectively targets tumors"}, {"measurement": "bone marrow toxicity (total bone marrow counts from femurs)", "setting": "[1]", "result": "did not display the bone marrow toxicity"}]}]}
